Test results from paper PMC5841623 (Journal of molecular biology, 2016).

Target: Recombinant DnaJ-1-HA (Drosophila, UniProt Q24133 1-334)
Assay: co-IP

Sequence of Recombinant DnaJ-1-HA (Q24133 whole entry): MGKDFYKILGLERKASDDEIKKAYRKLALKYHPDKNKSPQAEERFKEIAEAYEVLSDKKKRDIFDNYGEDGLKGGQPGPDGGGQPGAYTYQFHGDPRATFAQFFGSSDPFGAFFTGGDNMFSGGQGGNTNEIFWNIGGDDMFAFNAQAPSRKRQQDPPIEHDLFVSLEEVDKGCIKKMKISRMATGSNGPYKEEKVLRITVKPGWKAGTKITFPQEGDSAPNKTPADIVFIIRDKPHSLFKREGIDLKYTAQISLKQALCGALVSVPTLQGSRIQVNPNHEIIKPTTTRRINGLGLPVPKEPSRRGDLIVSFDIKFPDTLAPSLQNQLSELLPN

binding result: binds
B1: Recombinant His-MLF (natural protein, Drosophila, UniProt Q9NKV0-2 1-309, looked up)
chain: MSLFGALMGDFDDDLGLMNNHMNHTMNAMNMQMRSMNRLMNSFMPDPFMQVSPFDQGFQQNALMERPQMPAMPAMGLFGMPMMPNFNRLLNADIGGNSGASFCQSTVMTMSSGPDGRPQIYQASTSTKTGPGGVRETRRTVQDSRTGVKKMAIGHHIGERAHIIEKEQDMRSGQLEERQEFINLEEGEAEQFDREFTSRASRGAVQSRHHAGGMQAIMPARPAAHTSTLTIEPVEDDDDDDDDCVIQEQQPVRSSAGRHYSSAPTAPQNSIHPHPYAANPRRQQRAVKHFHTEDEAASSYKAVKRGKKK
